Biological target: c-Kit (CD117) on human undifferentiated blood cells (UT-7, M07e, cord blood-derived CD34 positive cells) (human, UniProt P10721 26-976)
Experiment: cell-based or functional assay

Sequence of c-Kit (CD117) on human undifferentiated blood cells (UT-7, M07e, cord blood-derived CD34 positive cells) (P10721 26-976): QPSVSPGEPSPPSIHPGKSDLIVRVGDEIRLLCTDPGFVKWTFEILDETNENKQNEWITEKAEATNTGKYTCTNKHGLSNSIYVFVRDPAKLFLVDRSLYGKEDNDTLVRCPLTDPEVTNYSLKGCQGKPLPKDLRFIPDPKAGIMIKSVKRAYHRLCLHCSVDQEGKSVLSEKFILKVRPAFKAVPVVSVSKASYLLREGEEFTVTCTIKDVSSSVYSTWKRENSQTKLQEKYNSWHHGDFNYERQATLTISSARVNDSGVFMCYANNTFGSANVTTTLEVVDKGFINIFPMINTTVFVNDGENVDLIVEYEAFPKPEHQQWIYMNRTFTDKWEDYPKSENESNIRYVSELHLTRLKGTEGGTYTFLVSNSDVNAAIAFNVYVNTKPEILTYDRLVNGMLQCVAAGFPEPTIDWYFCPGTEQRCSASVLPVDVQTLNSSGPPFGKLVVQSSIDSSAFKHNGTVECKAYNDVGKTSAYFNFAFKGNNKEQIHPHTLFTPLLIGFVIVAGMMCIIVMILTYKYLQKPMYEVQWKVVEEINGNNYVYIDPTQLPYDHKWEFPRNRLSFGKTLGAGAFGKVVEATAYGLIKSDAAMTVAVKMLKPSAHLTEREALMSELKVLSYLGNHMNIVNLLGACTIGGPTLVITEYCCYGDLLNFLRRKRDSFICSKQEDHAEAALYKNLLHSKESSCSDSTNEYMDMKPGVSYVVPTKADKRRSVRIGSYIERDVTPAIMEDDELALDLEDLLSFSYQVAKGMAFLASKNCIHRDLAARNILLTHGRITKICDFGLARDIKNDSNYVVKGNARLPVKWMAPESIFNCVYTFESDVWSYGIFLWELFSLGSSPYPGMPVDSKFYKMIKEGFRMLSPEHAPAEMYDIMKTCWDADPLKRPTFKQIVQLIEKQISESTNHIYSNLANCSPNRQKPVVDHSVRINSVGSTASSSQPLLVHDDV

B1: polypeptide (CARex-mSCF), being CAR extracellular region linked with mouse SCF (other)
chain: LSITTPEEMIEKAKGETAYLPCKFTLSPEDQGPLDIEWLISPADNQKVDQVIILYSGDKIYDDYYPDLKGRVHFTSNDLKSGDASINVTNLQLSDIGTYQCKVKKAPGVANKKIHLVVLVKPSGARCYVDGSEEIGSDFKIKCEPKEGSLPLQYEWQKLSDSQKMPTSWLAEMTSSVISVKNASSEYSGTYSCTVRNRVGSDQCLLRLNVVPPSNKAHHHHHHSASASAKEICGNPVTDNVKDITKLVANLPNDYMITLNYVAGMDVLPSHCWLRDMVIQLSLSLTTLLDKFSNISEGLSNYSIIDKLGKIVDDLVLCMEENAPKNIKESPKRPETRSFTPEEFFSIFNRSIDAFKDFMVASDTSDCVLSSTLGPEKDSRVSVTKPFMLPPVA
For B1, the “GFP positive cell ratio, M07e cells, Ax1CAgfp at MOI 100 (adenovirus alone 0.5%)” value was 82%.

Source: patent US20030092068A1 (ASAHI KASEI, published 2003)
